Data published in article PMC4856535 (Nature structural & molecular biology, 2016).
Changes are numbered by the printed parent chain. Names may count otherwise. Blank lines part the entries; values can stand above or below the molecule they belong to.

How the values were obtained:
[1] = target: TAMRA-labeled caspase-1^CARD-SUMO with C-terminal sortase motif (His-MBP removed by TEV protease in the assay) (human) (UniProt P29466); assay: fluorescence polarisation
SEC = target: the molecule itself; assay: SEC
[2] = target: T1, His-GFP-caspase-1^CARD (wild type) (human, UniProt P29466 1-91); assay: fluorescence polarisation
T1 sequence (looked up): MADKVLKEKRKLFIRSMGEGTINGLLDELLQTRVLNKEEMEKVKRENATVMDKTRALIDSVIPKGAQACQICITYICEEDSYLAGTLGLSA

Ki [1]: 9.4 nM
Molecule: His-tagged human inhibitor of CARD (INCA) (from UniProt Q5XLA6 1-110) (natural protein)

B1: His-MBP-ICEBERG (natural protein, human)
chain: ADQLLRKKRRIFIHSVGAGTINALLDCLLEDEVISQEDMNKVRDENDTVMDKARVLIDLVTGKGPKSCCKFIKHLCEEDPQLASKMGLH
binding result (SEC): binds

Ki [2]: 4.3 ± 1.4 nM
B2: His-tagged human inhibitor of CARD (INCA) (natural protein, UniProt Q5XLA6 1-110, looked up)
chain: MADKVLKEKRKQFIRSVGEGTINGLLGELLETRVLSQEEIEIVKCENATVMDKARALLDSVIRKGAPACQICITYICEEDSHLAGTLGLSAGPTSGNHLTTQDSQIVLPS

Ki [2]: ~1700 nM
B3: INCA R55E (natural protein, human, UniProt Q5XLA6 1-110, looked up)
chain: B2 chain with R55E
